Assay results reported in patent US20150344570A1 (published 2015).

What was measured:
[1] = molecular target: T1, FcγRIIb extracellular domain with C-terminal His tag (human, UniProt P31994 43-217); assay: SPR, binding relative to GpH7-A5/GpH7-B3/GpL16-k0 = 100
T1 construct: extracellular domain; also called 2b; FcgRIIb
T1 sequence (looked up): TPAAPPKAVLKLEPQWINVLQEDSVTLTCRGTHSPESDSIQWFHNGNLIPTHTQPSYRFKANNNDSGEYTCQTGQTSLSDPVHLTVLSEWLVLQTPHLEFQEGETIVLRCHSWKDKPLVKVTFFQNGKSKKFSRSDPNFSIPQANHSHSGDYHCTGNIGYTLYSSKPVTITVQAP
Method: (§1) The heterodimerized antibodies He Abs in which one of the H chains was introduced with an alteration were assayed for their binding activities to each activating FcγR and inhibitory FcγR according to the method described in Example 4. […] The activating FcγRs in FIGS. 26, 27, 28, and 29 are FcγRIa, FcγRIIa (R), FcγRIIa (H), and FcγRIIIa, respectively.
(§2) Analysis of interaction between objective antibody and the FcγR was carried out using Biacore T100 (GE Healthcare). HBS-EP+ (GE Healthcare) was used as the running buffer, and the measurement temperature was set to 25° C. Chips produced by immobilizing the antigen peptide by the amine coupling method to a Series S Sencor Chip CM5 (GE Healthcare), or alternatively, chips produced by allowing preliminarily biotinylated antigen peptides to interact with and immobilize onto a Series S Sensor Chip SA (certified) (GE Healthcare) were used. Antibodies of interest were captured onto an antigen peptide-immobilized chip, and allowed to interact to each FcγR diluted with running buffer. To regenerate and repeatedly use the chip, the antibodies captured on the chip were washed off by reacting 10 mM glycine-HCl, pH 1.5.

[2] = molecular target: T2, FcγRIIIa extracellular domain with C-terminal His tag (human, UniProt P08637 17-208); assay: as above
T2 construct: extracellular domain; also called 3a; FcgRIIIa
Method: as §1, §2

T2 sequence (P08637 17-208): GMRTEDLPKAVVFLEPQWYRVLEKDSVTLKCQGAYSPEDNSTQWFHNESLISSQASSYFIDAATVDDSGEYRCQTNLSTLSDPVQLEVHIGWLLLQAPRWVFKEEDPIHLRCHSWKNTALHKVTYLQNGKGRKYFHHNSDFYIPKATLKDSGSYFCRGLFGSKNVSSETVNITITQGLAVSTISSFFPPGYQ

B1: GpH7-A5/GpH7-B3 variant D270_10E/GpL16-k0 (antibody, human IgG1, kappa)
heavy 1: not shown
heavy 2: not shown
light: DIVMTQSPLSLPVTPGEPASISCQASESLVHSNRNTYLHWYLQKPGQSPQLLIYKVSNRFSGVPDRFSGSGSGTDFTLKISRVEAEDVGVYYCSQNTHVPPTFGQGTKVEIERTVAAPSVFIFPPSDEQLKSGTASVVCLLNNFYPREAKVQWKVDNALQSGNSQESVTEQDSKDSTYSLSSTLTLSKADYEKHKVYACEVTHQGLSSPVTKSFNRGEC
notes: also called He Ab
[1]
  He/Con_2b: 76.5 % of control
[2]
  He/Con_3a: 123 % of control

B2: GpH7-A5/GpH7-B3 variant S337_01G/GpL16-k0 (antibody, human IgG1, kappa)
heavy 1: not shown
heavy 2: not shown
light: B1 light
notes: also called He Ab
[1]
  He/Con_2b: 92 % of control
[2]
  He/Con_3a: 102 % of control

B3: GpH7-A5/GpH7-B3 variant K334_01G/GpL16-k0 (antibody, human IgG1, kappa)
heavy 1: not shown
heavy 2: not shown
light: B1 light
notes: also called He Ab
[1]
  He/Con_2b: 92.5 % of control
[2]
  He/Con_3a: 121 % of control

B4: GpH7-A5/GpH7-B3 variant E333_03V/GpL16-k0 (antibody, human IgG1, kappa)
heavy 1: not shown
heavy 2: not shown
light: B1 light
notes: also called He Ab
[1]
  He/Con_2b: 93.2 % of control
[2]
  He/Con_3a: 103 % of control

B5: GpH7-A5/GpH7-B3 variant E333_02A/GpL16-k0 (antibody, human IgG1, kappa)
heavy 1: not shown
heavy 2: not shown
light: B1 light
notes: also called He Ab
[1]
  He/Con_2b: 83.8 % of control
[2]
  He/Con_3a: 105 % of control

B6: GpH7-A5/GpH7-B3 variant S324_02A/GpL16-k0 (antibody, human IgG1, kappa)
heavy 1: not shown
heavy 2: not shown
light: B1 light
notes: also called He Ab
[1]
  He/Con_2b: 78.3 % of control
[2]
  He/Con_3a: 104 % of control

B7: GpH7-A5/GpH7-B3 variant S298_02A/GpL16-k0 (antibody, human IgG1, kappa)
heavy 1: not shown
heavy 2: not shown
light: B1 light
notes: also called He Ab; GpH7-A5/GpH7-B3-15-02A/GpL16-k0
[1]
  He/Con_2b: 73.4 % of control
[2]
  He/Con_3a: 160 % of control

B8: GpH7-A5/GpH7-B3 variant I332_19Q/GpL16-k0 (antibody, human IgG1, kappa)
heavy 1: not shown
heavy 2: not shown
light: B1 light
notes: also called He Ab
[1]
  He/Con_2b: 94.3 % of control
[2]
  He/Con_3a: 110 % of control

B9: GpH7-A5/GpH7-B3 variant I332_13S/GpL16-k0 (antibody, human IgG1, kappa)
heavy 1: not shown
heavy 2: not shown
light: B1 light
notes: also called He Ab
[1]
  He/Con_2b: 98.4 % of control
[2]
  He/Con_3a: 104 % of control

B10: GpH7-A5/GpH7-B3 variant S298_03V/GpL16-k0 (antibody, human IgG1, kappa)
heavy 1: not shown
heavy 2: not shown
light: B1 light
notes: also called He Ab
[1]
  He/Con_2b: 64.5 % of control
[2]
  He/Con_3a: 109 % of control

B11: GpH7-A5/GpH7-B3 variant E333_20W/GpL16-k0 (antibody, human IgG1, kappa)
heavy 1: not shown
heavy 2: not shown
light: B1 light
notes: also called He Ab
[1]
  He/Con_2b: 89.5 % of control
[2]
  He/Con_3a: 101 % of control

B12: GpH7-A5/GpH7-B3 variant S324_16H/GpL16-k0 (antibody, human IgG1, kappa)
heavy 1: not shown
heavy 2: not shown
light: B1 light
notes: also called He Ab
[1]
  He/Con_2b: 83.5 % of control
[2]
  He/Con_3a: 104 % of control

B13: GpH7-A5/GpH7-B3 variant I336_18N/GpL16-k0 (antibody, human IgG1, kappa)
heavy 1: not shown
heavy 2: not shown
light: B1 light
notes: also called He Ab
[1]
  He/Con_2b: 97.6 % of control
[2]
  He/Con_3a: 104 % of control

B14: GpH7-A5/GpH7-B3 variant K334_09D/GpL16-k0 (antibody, human IgG1, kappa)
heavy 1: not shown
heavy 2: not shown
light: B1 light
notes: also called He Ab
[1]
  He/Con_2b: 94.8 % of control
[2]
  He/Con_3a: 160 % of control

B15: GpH7-A5/GpH7-B3 variant S337_04F/GpL16-k0 (antibody, human IgG1, kappa)
heavy 1: not shown
heavy 2: not shown
light: B1 light
notes: also called He Ab
[1]
  He/Con_2b: 97.8 % of control
[2]
  He/Con_3a: 101 % of control

B16: GpH7-A5/GpH7-B3 variant I336_10E/GpL16-k0 (antibody, human IgG1, kappa)
heavy 1: not shown
heavy 2: not shown
light: B1 light
notes: also called He Ab
[1]
  He/Con_2b: 89.8 % of control
[2]
  He/Con_3a: 119 % of control

B17: GpH7-A5/GpH7-B3 variant S324_14T/GpL16-k0 (antibody, human IgG1, kappa)
heavy 1: not shown
heavy 2: not shown
light: B1 light
notes: also called He Ab
[1]
  He/Con_2b: 88.4 % of control
[2]
  He/Con_3a: 103 % of control

B18: GpH7-A5/GpH7-B3 variant S324_20W/GpL16-k0 (antibody, human IgG1, kappa)
heavy 1: not shown
heavy 2: not shown
light: B1 light
notes: also called He Ab
[1]
  He/Con_2b: 87.5 % of control
[2]
  He/Con_3a: 102 % of control

B19: GpH7-A5/GpH7-B3 variant E333_04F/GpL16-k0 (antibody, human IgG1, kappa)
heavy 1: not shown
heavy 2: not shown
light: B1 light
notes: also called He Ab
[1]
  He/Con_2b: 94.6 % of control
[2]
  He/Con_3a: 101 % of control

B20: GpH7-A5/GpH7-B3 variant Q295_02A/GpL16-k0 (antibody, human IgG1, kappa)
heavy 1: not shown
heavy 2: not shown
light: B1 light
notes: also called He Ab
[1]
  He/Con_2b: 79.7 % of control
[2]
  He/Con_3a: 106 % of control

B21: GpH7-A5/GpH7-B3 variant I336_09D/GpL16-k0 (antibody, human IgG1, kappa)
heavy 1: not shown
heavy 2: not shown
light: B1 light
notes: also called He Ab
[1]
  He/Con_2b: 92.1 % of control
[2]
  He/Con_3a: 106 % of control

B22: GpH7-A5/GpH7-B3 variant I336_02A/GpL16-k0 (antibody, human IgG1, kappa)
heavy 1: not shown
heavy 2: not shown
light: B1 light
notes: also called He Ab
[1]
  He/Con_2b: 84.9 % of control
[2]
  He/Con_3a: 111 % of control

B23: GpH7-A5/GpH7-B3 variant E333_16H/GpL16-k0 (antibody, human IgG1, kappa)
heavy 1: not shown
heavy 2: not shown
light: B1 light
notes: also called He Ab
[1]
  He/Con_2b: 83.3 % of control
[2]
  He/Con_3a: 103 % of control

B24: GpH7-A5/GpH7-B3 variant I336_14T/GpL16-k0 (antibody, human IgG1, kappa)
heavy 1: not shown
heavy 2: not shown
light: B1 light
notes: also called He Ab
[1]
  He/Con_2b: 89.5 % of control
[2]
  He/Con_3a: 108 % of control

B25: GpH7-A5/GpH7-B3 variant E333_09D/GpL16-k0 (antibody, human IgG1, kappa)
heavy 1: not shown
heavy 2: not shown
light: B1 light
notes: also called He Ab
[1]
  He/Con_2b: 94.3 % of control
[2]
  He/Con_3a: 112 % of control

B26: GpH7-A5/GpH7-B3 variant S324_15Y/GpL16-k0 (antibody, human IgG1, kappa)
heavy 1: not shown
heavy 2: not shown
light: B1 light
notes: also called He Ab
[1]
  He/Con_2b: 88.2 % of control
[2]
  He/Con_3a: 101 % of control

B27: GpH7-A5/GpH7-B3 variant T335_06M/GpL16-k0 (antibody, human IgG1, kappa)
heavy 1: not shown
heavy 2: not shown
light: B1 light
notes: also called He Ab
[1]
  He/Con_2b: 99.4 % of control
[2]
  He/Con_3a: 102 % of control

B28: GpH7-A5/GpH7-B3 variant S324_01G/GpL16-k0 (antibody, human IgG1, kappa)
heavy 1: not shown
heavy 2: not shown
light: B1 light
notes: also called He Ab
[1]
  He/Con_2b: 81.1 % of control
[2]
  He/Con_3a: 105 % of control

B29: GpH7-A5/GpH7-B3 variant I336_03V/GpL16-k0 (antibody, human IgG1, kappa)
heavy 1: not shown
heavy 2: not shown
light: B1 light
notes: also called He Ab
[1]
  He/Con_2b: 90.3 % of control
[2]
  He/Con_3a: 112 % of control

B30: GpH7-A5/GpH7-B3 variant T335_05P/GpL16-k0 (antibody, human IgG1, kappa)
heavy 1: not shown
heavy 2: not shown
light: B1 light
notes: also called He Ab
[1]
  He/Con_2b: 99.9 % of control
[2]
  He/Con_3a: 105 % of control

B31: GpH7-A5/GpH7-B3 variant Q295_10E/GpL16-k0 (antibody, human IgG1, kappa)
heavy 1: not shown
heavy 2: not shown
light: B1 light
notes: also called He Ab
[1]
  He/Con_2b: 94.8 % of control
[2]
  He/Con_3a: 100 % of control

B32: GpH7-A5/GpH7-B3 variant S298_14T/GpL16-k0 (antibody, human IgG1, kappa)
heavy 1: not shown
heavy 2: not shown
light: B1 light
notes: also called He Ab
[1]
  He/Con_2b: 77.9 % of control
[2]
  He/Con_3a: 113 % of control

B33: GpH7-A5/GpH7-B3 variant Q295_14T/GpL16-k0 (antibody, human IgG1, kappa)
heavy 1: not shown
heavy 2: not shown
light: B1 light
notes: also called He Ab
[1]
  He/Con_2b: 66.8 % of control
[2]
  He/Con_3a: 115 % of control

B34: GpH7-A5/GpH7-B3 variant S324_09D/GpL16-k0 (antibody, human IgG1, kappa)
heavy 1: not shown
heavy 2: not shown
light: B1 light
notes: also called He Ab
[1]
  He/Con_2b: 85.8 % of control
[2]
  He/Con_3a: 101 % of control

B35: GpH7-A5/GpH7-B3 variant I336_13S/GpL16-k0 (antibody, human IgG1, kappa)
heavy 1: not shown
heavy 2: not shown
light: B1 light
notes: also called He Ab
[1]
  He/Con_2b: 83.7 % of control
[2]
  He/Con_3a: 102 % of control

B36: GpH7-A5/GpH7-B3 variant I332_01G/GpL16-k0 (antibody, human IgG1, kappa)
heavy 1: not shown
heavy 2: not shown
light: B1 light
notes: also called He Ab
[1]
  He/Con_2b: 87.1 % of control
[2]
  He/Con_3a: 111 % of control

B37: GpH7-A5/GpH7-B3 variant E333_13S/GpL16-k0 (antibody, human IgG1, kappa)
heavy 1: not shown
heavy 2: not shown
light: B1 light
notes: also called He Ab
[1]
  He/Con_2b: 81.8 % of control
[2]
  He/Con_3a: 103 % of control
